Results published in paper PMC13061415, “A structural code for assembly specificity in GID/CTLH-type E3 ligases” (eLife, 2026).
Values joined by “and” are separate entries in the source; they are usually repeats but may differ in a detail not shown here. Equal entries are not always repeated. Values belong to the binder of their own block, whether it stands above or below them.

B5: muskelin CTLH-CRA domain (205–735 Δ248–625) (domain or fragment, rat, UniProt Q99PV3 205-735, looked up)
chain: EHPMLTDMHDKLVLKGDFDACEELIEKAVNDGLFNQYISQQEYPSKDYLLRHCKYLIRKHRFEEKAQMDPLSALKYLQNDLYITVDHSDPEETKEFQLLASALFKSGSDFTALGFSDVDHTYAQRTQLFDTLVNFFPDSMTPPKGNLVDLITL
notes: muskelin, rat, fusion of the CTLH motif and the C-terminus (CRA^N-like): residues 205-735 with 248-625 deleted; also called muskelin wt; CTLH-Ct construct; source: E. coli BL21 CodonPlus (DE3) RIL, purified as described previously (van gen Hassend et al., 2023)
B8: Twa1_14 mutant (A125G, Q126R, ΔT127, Q128E, A130Q, M143L, E144Q, L147F, A148S, F152Y, F160V; 58–190), CTLH-CRA domain (domain or fragment, mouse, UniProt Q9D7M1 58-190, looked up)
chain: SVDLETLDERIKIREMILKGQIQEAIALINSLHPELLDTNRYLYFHLQQQHLIELIRQRETEAALEFGRELQEQGEESRECLTELQRTFSLLAYDSPEESPVGDLLHMMQRQKVWSEVNQAVLDYENRESTP
notes: Twa1, mouse, CTLH-CRA domain 58-190 with eleven RanBP10-like changes; also called Twa_14; source: E. coli BL21 CodonPlus (DE3) RIL, purified (Ni-IDA, 3C cleavage, SEC); not shown: His6, N-terminal, cleaved

What was measured:
[1] = biological target: the molecule itself; assay: SEC-MALS; ITC-assembled samples: excess RanBP9-Twa1 added to pre-assembled Twa1_52-muskelin or Twa1_52-Wdr26; Superose 6 10/300 GL
[2] = biological target: T1, RanBP9 (69–653)-Twa1 (1–228) complex (mouse, UniProt P69566 69-653; Q9D7M1 1-228); assay: ITC; competition: RanBP9-Twa1 or RanBP10-Twa1 complex (160 μM) titrated into pre-formed Twa1_52-muskelin or Twa1_52-Wdr26 complex (16 μM); 25°C; competitive binding model with the parameters of the first titration; conditions: both partners purified
T1 construct: RanBP9, mouse, residues 69-653; Twa1, mouse, residues 1-228; In the text on the KD values the complex is called simply RanBP9; also called RanBP9-Twa1; source: E. coli BL21 CodonPlus (DE3) RIL, complex purified as described previously (van gen Hassend et al., 2023)

[3] = biological target: T2, RanBP9 CTLH-CRA domain (324–614, Δ391–534) (mouse, UniProt P69566 324-614, Δ391–534); assay: SEC-MALS; CTLH-CRA domain complexes co-expressed in E. coli and purified as complexes; Superdex 75 10/300 GL; 20 mM tricine pH 8.0, 500 mM NaCl, 1 mM TCEP; conditions: both partners purified
T2 construct: RanBP9, mouse, fusion of CTLH and CRA^N: residues 324-614 with the linker 391-534 deleted (without the CRA^C segment); A longer construct with the CRA^C segment (324–638, Δ391–534) was crystallised alone (PDB 9SNE); also called R9

Twa1 (1–228) = biological target: T3, Twa1 (1–228) (mouse, UniProt Q9D7M1 1-228); assay: SEC-MALS; Superdex 200 10/300 GL; Twa1 (1–228) alone, co-expressed Twa1-Rmnd5a (CTLH-CRA) and Twa1-Maea (CTLH-CRA) complexes, Maea double mutant (Y272A, Y275A); conditions: both partners purified
T3 construct: Twa1, mouse, residues 1-228; A homodimer on its own (SEC-MALS); one copy pairs with RanBP10 in the heterodimer of PDB 9SOC; also called full-length dimeric Twa1; source: E. coli BL21 CodonPlus (DE3) RIL, purified as described previously (van gen Hassend et al., 2023)

[4] = biological target: the molecule itself; assay: SEC-MALS; Maea CTLH-CRA dilution series, Superdex 200 10/300 GL; molar masses of 0.3 ml peak fractions against concentration, one-site binding fit; the constant is of the step tetramer (dimer of dimers) to dimers
[5] = biological target: T4, Twa1_10 mutant (A130Q, L147F, F152Y, F160V), CTLH-CRA domain (mouse, UniProt Q9D7M1 58-190, A130Q | L147F | F152Y | F160V); assay: native gel or EMSA; native agarose gel electrophoresis (NAGE): CTLH-CRA domains at 200 μM incubated with the partner at least 30 min at room temperature; 0.8% agarose, 25 mM Tris, 200 mM glycine, 4°C; Coomassie; conditions: both partners purified
T4 construct: Twa1, mouse, CTLH-CRA domain 58-190 with four RanBP10-like substitutions; source: E. coli BL21 CodonPlus (DE3) RIL, purified (Ni-IDA, 3C cleavage, SEC); not shown: His6, N-terminal, cleaved

[6] = biological target: B8; assay: as above; conditions: both partners purified
[7] = biological target: the molecule itself; assay: SEC-MALS; Superdex 200 10/300 GL; Twa1 (1–228) alone, co-expressed Twa1-Rmnd5a (CTLH-CRA) and Twa1-Maea (CTLH-CRA) complexes, Maea double mutant (Y272A, Y275A)
[8] = biological target: T5, Twa1_52 mutant (A125G, Q126R, Δ127T, L140K, E144K, L147F, F152Y, F160V), CTLH-CRA domain (mouse, UniProt Q9D7M1 58-190, A125G | Q126R | Δ127T | L140K | E144K | L147F | F152Y | F160V); assay: SEC-MALS; purified CTLH-CRA domains alone or mixed (RanBP10 and Twa1 variants with Maea or muskelin), final concentration 250 μM, Superdex 75 10/300 GL; conditions: both partners purified
T5 construct: Twa1, mouse, CTLH-CRA domain 58-190 with eight changes; source: E. coli BL21 CodonPlus (DE3) RIL, purified (Ni-IDA, 3C cleavage, SEC); also tagless, co-expressed with muskelin or Wdr26 CTLH-CRA domain; not shown: His6, N-terminal, cleaved

[9] = biological target: B5; assay: ITC; muskelin CTLH-CRA (160 μM, syringe) titrated into RanBP10 or Twa1 CTLH-CRA variants (16 μM, cell); 25°C; 20 mM tricine pH 8.0, 500 mM NaCl, 1 mM TCEP; one-site model; conditions: both partners purified

T1 sequence (P69566 69-653, chain 1 of 2): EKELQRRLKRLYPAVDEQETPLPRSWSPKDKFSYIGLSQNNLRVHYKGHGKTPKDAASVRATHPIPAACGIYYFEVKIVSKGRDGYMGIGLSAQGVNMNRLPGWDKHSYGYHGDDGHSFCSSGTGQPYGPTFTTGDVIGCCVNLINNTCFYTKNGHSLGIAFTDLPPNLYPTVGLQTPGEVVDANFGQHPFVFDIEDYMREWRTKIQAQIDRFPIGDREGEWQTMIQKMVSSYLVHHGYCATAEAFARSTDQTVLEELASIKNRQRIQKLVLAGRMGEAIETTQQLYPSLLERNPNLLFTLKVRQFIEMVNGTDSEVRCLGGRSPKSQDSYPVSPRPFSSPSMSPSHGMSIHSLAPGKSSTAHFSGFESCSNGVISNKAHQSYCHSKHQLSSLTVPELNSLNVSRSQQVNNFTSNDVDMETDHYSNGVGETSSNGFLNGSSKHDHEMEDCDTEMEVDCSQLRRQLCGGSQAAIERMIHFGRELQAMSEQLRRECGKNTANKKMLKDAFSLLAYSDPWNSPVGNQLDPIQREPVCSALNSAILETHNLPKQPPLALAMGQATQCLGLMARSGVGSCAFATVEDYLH
T1 sequence (Q9D7M1 whole entry, chain 2 of 2, the tested form may be a part): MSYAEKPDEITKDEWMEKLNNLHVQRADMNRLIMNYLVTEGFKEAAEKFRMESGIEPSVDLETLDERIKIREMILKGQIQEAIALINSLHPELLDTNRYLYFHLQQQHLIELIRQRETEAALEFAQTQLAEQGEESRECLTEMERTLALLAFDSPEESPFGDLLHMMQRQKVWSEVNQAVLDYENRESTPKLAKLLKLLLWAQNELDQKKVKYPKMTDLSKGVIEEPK
T3 sequence (Q9D7M1 whole entry, the tested form may be a part): as the sequence (Q9D7M1 whole entry, chain 2 of 2, the tested form may be a part) above
T2 sequence (P69566 other isoform, or with tags, fused parts or gaps Δ391–534 | Δ391–534 | mutant): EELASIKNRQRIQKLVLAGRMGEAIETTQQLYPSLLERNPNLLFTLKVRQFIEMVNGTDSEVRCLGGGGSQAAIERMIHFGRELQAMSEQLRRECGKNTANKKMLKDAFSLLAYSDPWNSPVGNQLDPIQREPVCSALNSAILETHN

- Kd [2]: 0.0795 nM
B1: muskelin (1–735) (natural protein, rat, UniProt Q99PV3 1-735, looked up)
chain: MAAGGAVAAAPECRLLPYALHKWSSFSSTYLPENILVDKPNDQSSRWSSESNYPPQYLILKLERPAIVQNITFGKYEKTHVCNLKKFKVFGGMNEENMTELLSSGLKNDYNKETFTLKHKIDEQMFPCRFIKIVPLLSWGPSFNFSIWYVELSGIDDPDIVQPCLNWYSKYREQEAIRLCLKHFRQHNYTEAFESLQKKTKIALEHPMLTDMHDKLVLKGDFDACEELIEKAVNDGLFNQYISQQEYKPRWSQIIPKSTKGDGEDNRPGMRGGHQMVIDVQTETVYLFGGWDGTQDLADFWAYSVKENQWTCISRDTEKENGPSARSCHKMCIDIQRRQIYTLGRYLDSSVRNSKSLKSDFYRYDIDTNTWMLLSEDTAADGGPKLVFDHQMCMDSEKHMIYTFGGRILTCNGSVDDSRASEPQFSGLFAFNCQCQTWKLLREDSCNAGPEDIQSRIGHCMLFHSKNRCLYVFGGQRSKTYLNDFFSYDVDSDHVDIISDGTKKDSGMVPMTGFTQRATIDPELNEIHVLSGLSKDKEKREENVRNSFWIYDIVRNSWSCVYKNDQAAKENLSKSLQEEEPCPRFAHQLVYDELHKVHYLFGGNPGKSCSPKMRLDDFWSLKLCRPSKDYLLRHCKYLIRKHRFEEKAQMDPLSALKYLQNDLYITVDHSDPEETKEFQLLASALFKSGSDFTALGFSDVDHTYAQRTQLFDTLVNFFPDSMTPPKGNLVDLITL
notes: muskelin, rat, residues 1-735; also called full-length muskelin; tetrameric muskelin; source: E. coli BL21 CodonPlus (DE3) RIL, purified as described previously (van gen Hassend et al., 2023)
- stoichiometry N [1]: 4

B2: muskelin CTLH-CRA domain, C-terminally shortened (205–719, Δ248–624) (domain or fragment, rat, UniProt Q99PV3 205-719, looked up)
chain: EHPMLTDMHDKLVLKGDFDACEELIEKAVNDGLFNQYISQQEYRPSKDYLLRHCKYLIRKHRFEEKAQMDPLSALKYLQNDLYITVDHSDPEETKEFQLLASALFKSGSDFTALGFSDVDHTYAQRTQLFDTLVNFFP
notes: muskelin, rat, residues 205-719 with 248-624 deleted; Insoluble on its own; soluble only when co-expressed with RanBP9/10 CTLH-CRA domains; also called muskelin (shortened C-terminus); Mkln; not shown: His6, N-terminal, cleaved
- stoichiometry N [3]: 1

B3: Maea CTLH-CRA domain (156-279) (domain or fragment, mouse, UniProt Q4VC33 156-279, looked up)
chain: NIEMFLTAKEVEESLERRETATCLAWCHDNKSRLRKMKSCLEFSLRIQEFIELVRQNKRLDAVRHARKHFSQAEGSQLDEVRQVMGMLAFPPDTHISPYKDLLDPARWRMLIQQFRYDNYRLHQ
notes: Maea, mouse, residues 156-279; In solution between a dimer and a tetramer (dimer of dimers), depending on concentration; source: E. coli BL21 CodonPlus (DE3) RIL, purified (Ni-IDA, 3C cleavage, SEC); also co-expressed with Twa1 (1–228); not shown: His6, N-terminal, cleaved
- stoichiometry N (Twa1 (1–228)): 1
- Kd [4]: ~5000 nM
- stoichiometry N [4]: 2 and 4
- binding result [5]: binds
- binding result [6]: binds

B4: Maea CTLH-CRA domain double mutant (Y272A, Y275A) (domain or fragment, mouse, UniProt Q4VC33 156-279, looked up)
chain: NIEMFLTAKEVEESLERRETATCLAWCHDNKSRLRKMKSCLEFSLRIQEFIELVRQNKRLDAVRHARKHFSQAEGSQLDEVRQVMGMLAFPPDTHISPYKDLLDPARWRMLIQQFRADNARLHQ
notes: Maea, mouse, CTLH-CRA domain; also called Maea double mutant; source: E. coli BL21 CodonPlus (DE3) RIL, purified (Ni-IDA, 3C cleavage, SEC); not shown: His6, N-terminal, cleaved
- stoichiometry N [7]: 2

Binder: B5
- stoichiometry N [8]: 1

- Kd [2]: 0.412 nM
B6: Wdr26 (102–641) (domain or fragment, mouse, UniProt Q8C6G8 102-641, looked up)
chain: QSDEDVIRLIGQHLNGLGLNQTVDLLMQESGCRLEHPSATKFRNHVMEGDWDKAENDLNELKPLVHSPHAIVVRGALEISQTLLGIIVRMKFLLLQQKYLEYLEDGKVLEALQVLRCELTPLKYNTERIHVLSGYLMCSHAEDLRAKAEWEGKGTASRSKLLDKLQTYLPPSVMLPPRRLQTLLRQAVELQRDRCLYHNTKLDNNLDSVSLLIDHVCSRRQFPCYTQQILTEHCNEVWFCKFSNDGTKLATGSKDTTVIIWQVDPDTHLLKLLKTLEGHAYGVSYIAWSPDDSYLVACGPDDCSELWLWNVQTGELRTKMSQSHEDSLTSVAWNPDGKRFVTGGQRGQFYQCDLDGNLLDSWEGVRVQCLWCLSDGKTVLASDTHQRVRGYNFEDLTDRNIVQEDHPIMSFTISKNGRLALLNVATQGVHLWDLQDRVLVRKYQGVTQGFYTIHSCFGGHNEDFIASGSEDHKVYIWHKRSELPIAELTGHTRTVNCVSWNPQIPSMMASASDDGTVRIWGPAPFIDHQNIEEECSSMDS
notes: Wdr26, mouse, residues 102-641; also called dimeric Wdr26; (near) full-length Wdr26; source: E. coli BL21 CodonPlus (DE3) RIL, purified as described previously (van gen Hassend et al., 2023)
- stoichiometry N [1]: 2

B7: Rmnd5a CTLH-CRA domain (147-275) (domain or fragment, mouse, UniProt Q80YQ8 147-275, looked up)
chain: DPSQKEPFVELNRILEALKVRVLRPALEWAVSNREMLIAQNSSLEFKLHRLYFISLLMGGTTNQREALQYAKNFQPFALNHQKDIQVLMGSLVYLRQGIENSPYVHLLDANQWADICDIFTRDACALLG
notes: Rmnd5a, mouse, residues 147-275; Could not be purified on its own; soluble when co-expressed with Twa1; source: E. coli BL21 CodonPlus (DE3) RIL, co-expressed with Twa1 (1–228), complex purified (Ni-IDA, 3C cleavage, SEC); not shown: His6, N-terminal, cleaved
- stoichiometry N (Twa1 (1–228)): 1

Binder: B8
- Kd [9]: 192 nM
